Laboratory results from the DeepSol protein solubility set.

Experiment: soluble on expression in E. coli; label from the status in PepcDB or PDB records

| Sequence | soluble on expression in E. coli |
| --- | --- |
| MSATSVDTQRTKGQDNKVQNGSLHQKDTVHDNDFEPYLTGQSNQSNSYPSMSDPYLSSYYPPSIGFPYSLNEAPWSTAGDPPIPYLTTYGQLSNGDHHFMHDAVFGQPGGLGNNIYQHRFNFFPENPAFSAWGTSGSQGQQTQSSAYGSSYTYPPSSLGGTVVDGQPGFHSDTLSKAPGMNSLEQGMVGLKIGDVSSSAVKTVGSVVSSVALTGVLSGNGGTNVNMPVSKPTSWAAIASKPAKPQPKMKTKSGPVMGGGLPPPPIKHNMDIGTWDNKGPVPKAPVPQQAPSPQAAPQPQQVAQPLPAQPPALAQPQYQSPQQPPQTRWVAPRNRNAAFGQSGGAGSDSNSPGNVQPNSAPSVESHPVLEKLKAAHSYNPKEFEWNLKSGRVFIIKSYSEDDIHRSIKYSIWCSTEHGNKRLDSAFRCMSSKGPVYLLFSVNGSGHFCGVAEMKSPVDYGTSAGVWSQDKWKGKFDVQWIFVKDVPNNQLRHIRLENNDNKPVTNSRDTQEVPLEKAKQVLKIISSYKHTTSIFDDFAHYEKRQEEEEVVRKERQSRNKQ | soluble |
| MGSDKIHHHHHHRVAQCCAIIDRSKIVIGFSDHGLYCIEISRQLLIPVGGEKENKQRCVETVEYDEAEQLLMMIVGPAKDRHVRIVPSAALDGRDLKWIKVNDTKGCHLLAVGTNNPGGRAGFFAVAFKKSVTIFQIDRSEKRHKKWKDLAMPGTPQSIAIFNGRLYVGFSHSFRSWSLVGVDSSPVGSGDASGAVLQHISLVNMEDTSLQFLNQQTSYEAKLIVNVPGSPDEYLLVFNMIGLYVNEMGRRSRLPEVMFPTQAKYFAYHEPYLCVFSENEVDIFNVTLAEWVQTINLRSAKPLSGDGILSTCLCNDSPIFVLLQN | not soluble |
| MGEAVEVMFGNGFPEIHKATSPTQTLHSNQQDCHWYEETIDDDLKWSFALNSVLHQGTSEYQDIALLDTKRFGKVLVIDGKMQSAERDEFIYHECLIHPALLFHPNSPKTVFIMGGGEGSAAREILKHTTIEKVVMCDIDQEVVDFCRRFLTVNSDAFCNKKLELVIKDAKAELEKREEKFDIIVGDLADPVEGGPCYQLYTKSFYQNILKPKLSPNGIFVTQAGPAGIFTHKEVFTSIYNTMKQVFKYVKAYTAHVPSFADTWGWVMASDHEFDVEVDEMDRRIEERVNGELMYLNAPSFVSAATLNKTISLALEKETEVYSEENARFIHGHGVAYRHI | soluble |
| LKLTPRQYNDVYEVNYDFINNVRYLMDDVVRGYDYALERYYDFLDVRNDDLRWILSSAQYRRFMRAEHFYRPIYAHENKWHFRIYLVYNNVNFFYYGKPHHYASYCGGHYRTHFNNVSYYKTHYRDHYRHDVYDGHYRIRHDRMTYDMHRRRDFNIAVRPPQKEHHRPATPPQTRPNRPQIHPDRP | not soluble |
| GKSASMAVEEIASRKDISLRDMQISAILKMLFLNKDLNNNDNITTITDDIFNQQEIIWKVLILDIKSTATISSVLRVNDLLKAGITVHSLIKQDRSPLPDVPAIYFVSPTKENIDIIVNDLKSDKYSEFYINFTSSLPRNLLEDLAQQVSITGKSDKIKQVYDQYLDFIVTEPELFSLEISNAYLTLNDPKTTEEEITGLCANIADGLFNTVLTINSIPIIRAAKGGPAEIIAEKLGTKLRDFVINTNSSSTSTLQGNDSLERGVLIILDRNIDFASMFSHSWIYQCMVFDIFKLSRNTVTIPLESKENGTDNTTAKPLATKKYDIEPNDFFWMENSHLPFPEAAENVEAALNTYKEEAAEITRKTGVTNISDLDPNSNNDTVQIQEVVKKLPELTAKKNTIDTHMNIFAALLSQLESKSLDTFFEVEQDPGSTKTRSRFLDILKDGKTNNLEDKLRSFIVLYLTSTTGLPKDFVQNVENYFKENDYDINALKYVYKLREFMQLSNMSLQNKSLEDGSDSAFKPSNLTLSGIYGLTEGKLQGGVGSLISGIKKLLPEKKTIPITNVVDAIMDPLNSSQKNLETTDSYLYIDPKITRGSHTRKPKRQSYNKSLVFVVGGGNYLEYQNLQEWAHSQLHNPKKVMYGSTAITTPAEFLNEISRLGASNSSNNDA | soluble |
| MGHHHHHHSHMTSETPDYLLKYAAISSSEQRQSYKNDFNAEYSEYRDLHARIERITRRFTQLDAQLRQLSQGSEEYETTRGQILQEYRKIKKTNTNYSQEKHRCEYLHSKLAHIKRLIAEYDQRQLQAWP | soluble |
| MKLIKNAEFGGERPLFESHDLRLENVIIRTGESAIKECSNIETVDCRFEGNYPFWHVHGFKIDRCYFDVGGRSALWYSDHLKMTDTIIDAPKMFREMDEIDIENVTMNDADEVFWRCNGIRIKNLKLHGGTYPFMFSNNIYVDGLESNSKYVFQYVKNVEIHHAKITTKDAFWEVENVTIYDSELNGEYLGWHSKNLRLVNCHITGEQPLCYAHDLILENCTFGPDCDRTFEYSTLQADIHGAITNIKNPMSGCIVADEFGSITIDENIKAPADCEIRLRDERTCFTD | soluble |
| MRPRYRASGPSSSPDRTSSQPGSRSMIQCKRVYEPASPADGRRVLVDRLWPRGIRKEALAMDDWLKEVAPSNEVRKQFCHDPALFDSFREHYRAELQAHPEHWWGLLDSAREGTLTLLYGAHDQQHNNAVVLAEFLEEELDRQQPGSSPTCYADRLS | not soluble |
| MAEKTVYRVDGLSCTNCAAKFERNVKEIEGVTEAIVNFGASKITVTGEASIQQVEQAGAFEHLKIIPEKEA | soluble |
| NSSKCYIQVTGMTCASCVANIERNLRREEGIYSILVALMAGKAEVRYNPAVIQPPMIAEFIRELGFGATVIENIEGR | soluble |
| MFREESRSVPVEEGEVYDVTIQDIARQGDGIARIEGFVIFVPGTKVGDEVRIKVERVLPKFAFASVVELEHHHHHH | not soluble |
| MPLPFSIISTTSQDVLEDADSDEEAETFYVNWITEKNHSFPQSMVLELEEESLVSSVKLIVHKDYPPSSLTVSLGIPSNHFRNSRGKSYNADYSVRQELSFRDDFHVEYGQKHPKATVFFNSPAKFVRISVHGFSDSDVNHHRQVSILSVIISGAGEILPFDSHLKDEPKQTEMSYIELDKGILLPLKSKPKMRETKTIVGLYDTDSEDEEILFSKEMLNRLRKREAVMKNPQLPTTSAITETIAIDTSCEKSAPVSSSSSSKQQSSVSPPLSDRSKKQILDEILGIDEKGNKGKPRKEVYFGSRMSEFNNMLRLLERKREESIWEEKYAQASAIDESVKDLKSREAGLRELIIEREDALKGKDLIAAQR | not soluble |
| MPSTLQGTFHTYRIIRRLGQGAFGEVSLAGVLETGEVVALKRIHIRNTGGIPDVVVREIKALQSVSHPNVVALLDVFPKGQAIYLVQEYCTTDLAALLRRLPAPPPERIAKGLMLQLCRGLEALHAEGIMHRDVKPSNTLLSAASGTAKLADCGLARPLDGGERPAYTHAVATRWYRAPELLYGARAYGPAVDVWALGLVFAELLGLSPLVPGDNDIDQLGRVIATFGSMEPVWLGVRALPDWGKIAFPHCEPLPLGDLLPGAPAAALEFLAAFLRYDPAKRITAACAVRSTYLTATQPL | not soluble |
| MLTPERHQMILQLVKEQKVVKLQQLVERTESSESTIRRDLAQLEKQRLLKRVHGGAAVLTGKGQEPTMVEKSSKNIQIKQQIAKYAASVIEQGDCIYLDAGSTTFEMIPFLINKDVTVVTNGLMHIEALVENNIRAYLLGGMMKSRTKALIGAMAQESMQKYRFDKCFLGANGVHEQLGFTTPDPEEALLKQMALTLANEGYFLIDESKFSEVAFAKIANVEDANIITNHLEIDLEKYKQQTNVIEADKQLEHHHHHH | soluble |
| MAHHHHHHMNSKDTNELKRGAGYLKEKAIIGLTRVTGNELDRAIYKVTSHKLKAPKEKHMQRVLAATRGYSSQKTHKGRNTCEYIVSEFEKRLHTHNWIVVLKTLVTFHRLMKDGSDEVNNCIQQNRNIFCFRNIKDLSESSEGAVQSVFIRQYMYYLEERSSSQRKLGASKRMENSEFGVFLRSLDVDTLGPVFESLLVQLSALVEVQYKEAIVDNFCTMEAFQRLVNDGKLLYQILSDRAIFILDGFSGFTLQQKKDWVRRYREYTVVGERLRLLFESIANSKRMFDEPPPPLKALPGSLLESLEREVRLSSIAHEDITETLESLGITADEKTPLKATTSDGTMAIYSPVATEKALDTTETGAPPVTEPKKESGFSIDDLFVPPPVTDSHQQTSYNPSTIPQGTQMEGPLIQTEANPNMTYTFPTGVPVGQNFFGQQPTGNSLTWEAPSPAPGSMQPQSAAGIVPSWSDSSASWGRGNCGSNTVDPFKDLYASQKGGQ | soluble |
| MIVRGGGDLATGVIQKLWHVGFKILVLETECPLAIRRTVSVCDAIFQKEQRVEDLVAVRITSLKDCAKCWQQNKLPVFVDQTASAIQQLKPLIVIDAILAKKNLGTHRGMAPITIALGPGFSAPQDVDVVIETMRGHRLGRLYFEGTALPNTGIPGEIGGKSAERVVHAPASGQVTHLKNIGDLVLKGEALFLIDQVPVYSPLTGTLRGLISEKVTCYQGLKCADVDPRPVEKVDCLTISDKARALGGAVLEAIFMIGRRKNVLLEHHHHHH | soluble |
| MGSDKIHHHHHHMEEFEGEAIVEAENVVSIMLRREAAERADEILHFSYWSGEIKELDAPGYLDRWQKKCYHATCSLDEGEILLVVGPPGSGKTTFIAEAARKLSEEERVWVTSNTNIAVDNVLEKLERALRIGHPSKITAGVRRHSVEYNLLSGIRFSDYREYASKVAEAYREIARIQNDMIRKGKIVVGSTILKGMMSALKNYDFDTVIIDEASNTCISTALLALEKAEKAVVVGDPYQLPPVYEVGGHKAAKFSAYNFLINIYGKNLWLRRHYRSNAKIAEFAARHVYGFLEIDEKCRRIKIEPCKTTIPEVGDPEKPLVFIDCNGVERREGRSKVNEEEAEVVAMIAEELAECVGEENVGVITPYVKQAELIRGILSEFGVMVEVSTVHSYQGREKDVVIYSITATGNPYFASEKRLFNVALTRARKKFIAVGNSKALEGKNLLLTRFMVAAIKEGGFVRLR | not soluble |
| MNPLRSIQHNITTPPISGGQPLDAVGPQAQQSHPKRISPSQLSQSAHQALERLSANAEHQRLASLVRNALQDGTFQFQSSNHTQVTYKASICLPADTDTVRTDHLINNELTVQARLNDQSEYDIVSAHLHGSSKAISFDVPSPPPAHGSASSVLSERTHLGMSSVLSQDAVDSSSLETPLVSSPDHSRPPSQPKPVHIGSVRRDSGSLVSDNPVVQALLSFVQADQAFPPQAASIAGVQLEMRSRRDIEQALEELKGAFTVEKAQLMSGGSSSERVDEDVNADIHIPLLLKAIERGAGAFGPGALIEIADGGQISAKAFLASCAPTITSNDDVLSEFINQKLKGDDDLQVRLGAQELLHVATKKEFQLGGLAGSIGVSSILGSAWELGASELLKNAIFGKNFSPSQYALQLAGIDSVPPFIIEAMDSFCVLVIIKGMKGELWSMKDLLPKALKAGAISSAMSFPNNVLQYAGFKSRVADLAANSITTEAAIFGAASGIPPEVKESEELMRAGLFQSMKDGVMAHPGEGMDTKETIERMTRHALDIAPGESTAVKSMGLAAIVGMIPLIASSKATGLVSEQILRIFRNAVFNPIEAIALNALALGGRVNVPGLFDSDNAKHARVAQTILARASQHMEAGDREISAEELHQMLAPRSEFLRHVGSAIVNGMNASFEAIPALVRKLGYGEAPLAERIPYQDLAVPDTSRQPAP | not soluble |
| MSLKLVGIIGSIADESYNRKLMLYIASHFKETIDIEILDIRDVPMFRVGMEMGPAVEYLNKKISAADGVIIATPEHNHTTTAALKSVIEWLSSSVHPFADKPVLLVGASYFEQGSGRAQLDLRQILESPGVNALVMPKDEFLLGNVKSAFDENGNLKEARTVGFLESVMGNFLKWIKVLKAMKKNNDVKGDWESEDLTASQEIDTTVKGVDMKAEDWVEQAAAKTNAVEGDTYVKLDRGLLTVNQLNWFLNTMPVELTFADDNNQFIYYNRMDENPKDMLAPRQPKQVGDPLESVHPERALKGVKHVVHTLRTGETDLVSMPVPFINKVNEKHVMHYYKAMHDEDGRYRGINEWVVDIWPVVESYLKMTGQKLVADENAKVDEGHHHHHH | soluble |
